The values below come from article PMC6763497, “Argonaute bypasses cellular obstacles without hindrance during target search”.

Data set [1] has as its target T1, CbAgo (Clostridium butyricum, UniProt P0DYD1 1-748). In words: smFRET; 17 bp blockade, shuttling; 50 mM Tris-HCl pH 8.0, 100 mM NaCl (10-200 mM in salt series); temperature not given; TIRF smFRET, 100 ms. As to conditions: protein: recombinant; tags: His6-MBP removed by TEV; label: Cy3 guide; 3' biotin dT target; strands 2:3 pair over 17 bp, ss flanks.
The target in data set [2] is T1, CbAgo. In words: smFRET; 21 bp blockade; 50 mM Tris-HCl pH 8.0, 100 mM NaCl (10-200 mM in salt series); temperature not given; TIRF smFRET, 100 ms. As to conditions: protein: recombinant; tags: His6-MBP removed by TEV; label: Cy3 guide; 3' biotin dT target; strands 2:3 pair over 21 bp, ss flanks.
Data set [3] deals with T1, CbAgo. In words: smFRET; 25 bp blockade; 50 mM Tris-HCl pH 8.0, 100 mM NaCl (10-200 mM in salt series); temperature not given; TIRF smFRET, 100 ms. The settings on record: protein: recombinant; tags: His6-MBP removed by TEV; label: Cy3 guide; 3' biotin dT target; strands 2:3 pair over 25 bp, ss flanks.
The target in data set [4] is T1, CbAgo. Description: smFRET; 100 mM NaCl; mean dwell 37 s, koff 2.7e-2 s-1; 50 mM Tris-HCl pH 8.0, 100 mM NaCl (10-200 mM in salt series); temperature not given; TIRF smFRET, 100 ms. As to conditions: protein: recombinant, tags: His6-MBP removed by TEV, label: Cy3 guide, Cy5 target, 3' biotin target, 3 nt match (guide nt 2-4).
The target in data set [5] is T1, CbAgo. Description: smFRET; 15.1% shuttling; strongly bound; 50 mM Tris-HCl pH 8.0, 100 mM NaCl (10-200 mM in salt series); temperature not given; TIRF smFRET, 100 ms. As to conditions: protein: recombinant, tags: His6-MBP removed by TEV, label: Cy3 guide, Cy5 target, 3' biotin, two sites, 6 nt match.
Data set [6] concerns the target T1, CbAgo. In words: smFRET; 100 mM NaCl; 87.8% shuttling, 13.5 events per binding; 50 mM Tris-HCl pH 8.0, 100 mM NaCl (10-200 mM in salt series); temperature not given; TIRF smFRET, 100 ms. The settings on record: protein: recombinant, tags: His6-MBP removed by TEV, label: Cy3 guide, Cy5 target, 3' biotin, two sites.
Data set [7] addresses T1, CbAgo. Description: smFRET; stable beyond photobleaching time; 50 mM Tris-HCl pH 8.0, 100 mM NaCl (10-200 mM in salt series); temperature not given; TIRF smFRET, 100 ms. The settings on record: protein: recombinant, tags: His6-MBP removed by TEV, label: Cy3 guide, Cy5 target, 3' biotin target.
Data set [8] has as its target T1, CbAgo. In words: smFRET; shuttling time 2.11 s (2.03-2.19); 50 mM Tris-HCl pH 8.0, 100 mM NaCl (10-200 mM in salt series); temperature not given; TIRF smFRET, 100 ms. As to conditions: protein: recombinant, tags: His6-MBP removed by TEV, label: Cy3 guide, Cy5 target, 3' biotin dT, two sites.
Data set [9] deals with T1, CbAgo. In words: smFRET; shuttling time 0.5124 s at 200 mM NaCl; 50 mM Tris-HCl pH 8.0, 100 mM NaCl (10-200 mM in salt series); temperature not given; TIRF smFRET, 100 ms. As to conditions: protein: recombinant, tags: His6-MBP removed by TEV, label: Cy3 guide, Cy5 target, 3' biotin dT, two sites.
For data set [10], the target named is T1, CbAgo. In words: smFRET; Lin28b bound between targets; shuttling; 50 mM Tris-HCl pH 8.0, 100 mM NaCl (10-200 mM in salt series); temperature not given; TIRF smFRET, 100 ms. The settings on record: protein: recombinant; tags: His6-MBP removed by TEV; label: Cy3 guide; Cy5 target; hairpin between two ss target sites.
Data set [11] deals with T1, CbAgo. In words: smFRET; shuttling time 0.4459 s at 200 mM NaCl; 50 mM Tris-HCl pH 8.0, 100 mM NaCl (10-200 mM in salt series); temperature not given; TIRF smFRET, 100 ms. As to conditions: protein: recombinant, tags: His6-MBP removed by TEV, label: Cy3 guide, Cy5 target, 3' biotin, two sites.
Data set [12] concerns the target T1, CbAgo. In words: smFRET; three-state shuttling; 50 mM Tris-HCl pH 8.0, 100 mM NaCl (10-200 mM in salt series); temperature not given; TIRF smFRET, 100 ms. As to conditions: protein: recombinant, tags: His6-MBP removed by TEV, label: Cy3 guide, Cy5 target, 3' biotin, three sites 11 nt apart.
The target of data set [13] is T1, CbAgo. In words: smFRET; shuttling rate 0.3188 s-1; 50 mM Tris-HCl pH 8.0, 100 mM NaCl (10-200 mM in salt series); temperature not given; TIRF smFRET, 100 ms. As to conditions: protein: recombinant, tags: His6-MBP removed by TEV, label: Cy3 guide, Cy5 target, 3' biotin dT, two sites.
In data set [14] the target is T1, CbAgo. In words: smFRET; shuttling time as tandem 11 nt; 50 mM Tris-HCl pH 8.0, 100 mM NaCl (10-200 mM in salt series); temperature not given; TIRF smFRET, 100 ms. As to conditions: protein: recombinant; tags: His6-MBP removed by TEV; label: Cy3 guide; Cy5 target; 5' biotin strand; fork 2:3, 17 bp stem.

B1: Guide 3nt / 36 nt target with 17 nt block (mixed)
DNA 1: CGAGTATTTTTTTTTTTTTTTT
DNA 2: TTTTTTTTTTTTTTACTACCTCTCGGACCAACAGCGGGTACGGCTGTGCTACTACCTCTTTTTTTTTTTTTTTTTTTTTTTTTTTTTTTT
DNA 3: ACAGCCGTACCCGCTGT
modifications: guide 5' phosphate; labelled T in block
On to B1, for which, in the data set with CbAgo [1], the binding result is reported as “binds”.

B2: Guide 3nt / 36 nt target with 21 nt block (mixed)
DNA 1: CGAGTATTTTTTTTTTTTTTTT
DNA 2: TTTTTTTTTTTTTTACTACCTCTCGGACCAACAGCGGGTACGGCTGTGCTACTACCTCTTTTTTTTTTTTTTTTTTTTTTTTTTTTTTTT
DNA 3: GCACAGCCGTACCCGCTGTTG
modifications: guide 5' phosphate; labelled T in block
B2: the binding result with CbAgo [2] is “binds”.

B3: Guide 3nt / 36 nt target with 25 nt block (mixed)
DNA 1: CGAGTATTTTTTTTTTTTTTTT
DNA 2: TTTTTTTTTTTTTTACTACCTCTCGGACCAACAGCGGGTACGGCTGTGCTACTACCTCTTTTTTTTTTTTTTTTTTTTTTTTTTTTTTTT
DNA 3: TAGCACAGCCGTACCCGCTGTTGGT
modifications: guide 5' phosphate; labelled T in block
As for B3, in the data set with CbAgo [3], the binding result was “binds”.

B4: Guide 3nt (2-4) / single target (ssDNA)
DNA 1: CGAGTATTTTTTTTTTTTTTTT
DNA 2: TTTTTTTTTTTTTTTTTTTTTTTTTTTTTTTTTTTACTACCTCTTTTTTTTTTTTTTTTTTTTTTTTTTTTTT
modifications: guide 5' phosphate; amino-C6-dT at guide nt 9 and target nt 28
As to B4, the binding result with CbAgo [4] is “binds”.

B5: Guide 6nt / tandem 22 nt (ssDNA)
DNA 1: CGAGGTATTTTTTTTTTTTTTT
DNA 2: TTTTTTTTTTTTTACTACCTCTTTTTTTTTTTTTTACTACCTCTTTTTTTTTTTTTTTTTTTTTTTTTTTTTT
modifications: guide 5' phosphate; amino-C6-dT
Turning to B5, the binding result with CbAgo [5] is reported as “binds”.

B6: Guide 3nt / tandem 22 nt (ssDNA)
DNA 1: CGAGTATTTTTTTTTTTTTTTT
DNA 2: TTTTTTTTTTTTTACTACCTCTTTTTTTTTTTTTTACTACCTCTTTTTTTTTTTTTTTTTTTTTTTTTTTTTT
modifications: guide 5' phosphate; amino-C6-dT
On to B6, for which, in the data set with CbAgo [6], the binding result is on record as “binds”.

B7: Guide 7nt (2-8) / single target (ssDNA)
DNA 1: CGAGGTAGATTTTTTTTTTTTT
DNA 2: TTTTTTTTTTTTTTTTTTTTTTTTTTTTTTTTTTTACTACCTCTTTTTTTTTTTTTTTTTTTTTTTTTTTTTT
modifications: guide 5' phosphate; amino-C6-dT
For the molecule B7, the binding result with CbAgo [7] (named 7 nt match (nt 2-8)) is on record as “binds”.

B8: Guide 8nt (2-9) / single target (ssDNA)
DNA 1: CGAGGTAGTTTTTTTTTTTTTT
DNA 2: TTTTTTTTTTTTTTTTTTTTTTTTTTTTTTTTTTTACTACCTCTTTTTTTTTTTTTTTTTTTTTTTTTTTTTT
modifications: guide 5' phosphate; amino-C6-dT
For the molecule B8, in the data set with CbAgo [7] (named 8 nt match (nt 2-9)), the binding result is given as “binds”.

B9: Guide 3nt / tandem 120 nt (ssDNA)
DNA 1: CGAGTATTTTTTTTTTTTTTTT
DNA 2: TTTTTTTTTTTTTTACTACCTCTTTTTTTTTTTTTTTTTTTTTTTTTTTTTTTTTTTTTTTTTTTTTTTTTTTTTTTTTTTTTTTTTTTTTTTTTTTTTTTTTTTTTTTTTTTTTTTTTTTTTTTTTTTTTTTTACTACCTCTTTTTTTTTTTTTTTTTTTTTTTTTTTTTTT
modifications: guide 5' phosphate; amino-C6-dT; target 3' phosphate
Turning to B9, in the data set with CbAgo [8], the binding result is reported as “binds”.

B10: Guide 3nt / tandem 64 nt (ssDNA)
DNA 1: CGAGTATTTTTTTTTTTTTTTT
DNA 2: TTTTTTTTTTTTTTACTACCTCTTTTTTTTTTTTTTTTTTTTTTTTTTTTTTTTTTTTTTTTTTTTTTTTTTTTTTTTACTACCTCTTTTTTTTTTTTTTTTTTTTTTTTTTTTTTTT
modifications: guide 5' phosphate; amino-C6-dT; target 3' phosphate
For B10, in the data set with CbAgo [9], the binding result is on record as “binds”.

B11: Guide 3nt / Lin28 double target (mixed)
DNA 1: CGAGTATTTTTTTTTTTTTTTT
DNA 2: TTTTTTTTTTTTTTTTTTTACTACCTCTTTTTTTTTTTTTTTTTTTTGCGCTATGCGGTTGTATAGTTTTAGGGTCACACCCACCACTGGGAGATAACTATACAATCGCATAGCGCTTTTTTTTTTTTTTTTTTTTTTTTTTTTTTTTTACTACCTCTTTTTTTTTTTTTTTTT
modifications: guide 5' phosphate; amino-C6-dT
Consider B11, for which, in the data set with CbAgo [10], the binding result was “binds”.

B12: Guide 3nt / tandem 15 nt (ssDNA)
DNA 1: CGAGTATTTTTTTTTTTTTTTT
DNA 2: TTTTTTTTTTTTTACTACCTCTTTTTTTACTACCTCTTTTTTTTTTTTTTTTTTTTTTTTTTTTTT
modifications: guide 5' phosphate; amino-C6-dT
Turning to B12, the binding result in the data set with CbAgo [11] is recorded as “binds”.

B13: Guide 3nt / triple target (ssDNA)
DNA 1: CGAGTATTTTTTTTTTTTTTTT
DNA 2: TTTTTTTTTTTTACCTCTTTTTTACCTCTTTTTTACCTCTTTTTTTTTTTTTTTTTTTTTTTTTTTTTT
modifications: guide 5' phosphate; amino-C6-dT
B13: in the data set with CbAgo [12], the binding result is “binds”.

B14: Guide 3nt / tandem 92 nt (ssDNA)
DNA 1: CGAGTATTTTTTTTTTTTTTTT
DNA 2: TTTTTTTTTTTTTTACTACCTCTTTTTTTTTTTTTTTTTTTTTTTTTTTTTTTTTTTTTTTTTTTTTTTTTTTTTTTTTTTTTTTTTTTTTTTTTTTTTTTTTTTTACTACCTCTTTTTTTTTTTTTTTTTTTTTTTTTTTTTTT
modifications: guide 5' phosphate; amino-C6-dT; target 3' phosphate
For B14, the binding result in the data set with CbAgo [13] is listed as “binds”.

B15: Guide 3nt / 11 nt Y-fork (mixed)
DNA 1: CGAGTATTTTTTTTTTTTTTTT
DNA 2: TTTTTTTTTTTTTTTTTTTTTTTTCTCTTTGGCGACGGCAGCGAGGC
DNA 3: GCCTCGCTGCCGTCGCCATTTTTTCTCTTTTTTTTT
modifications: guide 5' phosphate; dye-labelled T in target
As for B15, in the data set with CbAgo [14], the binding result was “binds”.
